From publication PMC9444907
pKd: −log10 of the molar value. Read-outs that look alike come from different tables or passages of the source.

Legend:
[1] = target: p107ΔL pocket domain (residues 389-972, Δ600-779, Δ888-923) (human); experiment: ITC
[2] = target: p107 pocket domain V939M (human); experiment: ITC
[3] = target: p107 pocket domain M865V (human); experiment: ITC
[4] = target: human Rb pocket domain lacking the single internal loop (residues 380-787; Δ582-642) (human) (UniProt P06400); experiment: ITC
[5] = target: Rb pocket domain (Homo sapiens) (UniProt P06400); details: cited from earlier work
[6] = target: Rb pocket domain (Homo sapiens) (UniProt P06400); details: cited from earlier work; remark: listed apart in the source

Row | Substance | pKd [1] | pKd [4] | also measured
1 | HDAC1 triple (3X) mutant peptide R413D/A415Y/E417Y | 6.98 | – | –
2 | human ARID4A LxCxE motif peptide | 5.80 | 6.85 | pKd [2]: 6.48; pKd [3]: 6.92
3 | HPV16 E7 peptide (from UniProt P03129) | – | – | pKd [5]: 8.30
4 | EID1 peptide G179Y/D181Y | 6.60 | 6.77 | –
5 | EID1 peptide E176R/E177R | 4.85 | 5.05 | –
6 | PRDM2 IxCxE peptide (from UniProt Q13029) | – | – | pKd [6]: 6.19

Continued, in another order:

Row | pKd [1] | pKd [4] | Substance | also measured
7 | 5.64 | – | ARID4A peptide E955R | –
8 | < 5.00 | – | human HDAC1 LxCxE motif peptide | –
9 | 5.15 | 5.22 | human EID1 LxCxE motif peptide | –
